Measurements taken from the supplement of paper PMC9876800.

System: peptide library, one residue held at a place counted from the S/T acceptor
Test: relative phosphorylation of the sub-library (ratio to the mean residue at this position); human; higher = residue favoured
How it was run: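 Purified recombinant kinases, either human or orthologue constructs, were incubated in 384-well plates with biotinylated degenerate peptide sub-libraries. Each sub-library fixed one residue at one position around a central Ser/Thr. Peptides at 50 μM and 50 μM ATP spiked with γ-32P-ATP were used for 90 min under kinase-specific conditions, and spots on streptavidin membranes were phosphorimaged and quantified by densitometry. Relative sub-library phosphorylation is expressed as a ratio to the mean residue at that position.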

RIPK1, construct: aa1-327, sequence (Q13546 1-327, looked up): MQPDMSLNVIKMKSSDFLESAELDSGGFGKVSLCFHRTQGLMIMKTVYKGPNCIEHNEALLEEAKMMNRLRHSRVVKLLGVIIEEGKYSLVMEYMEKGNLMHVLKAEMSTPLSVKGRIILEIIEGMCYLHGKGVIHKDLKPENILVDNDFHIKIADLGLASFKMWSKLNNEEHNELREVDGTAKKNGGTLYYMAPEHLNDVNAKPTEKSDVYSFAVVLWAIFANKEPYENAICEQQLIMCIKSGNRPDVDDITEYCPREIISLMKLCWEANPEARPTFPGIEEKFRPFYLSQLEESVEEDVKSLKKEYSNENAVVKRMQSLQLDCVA

RIPK1, construct: aa1-327 (from UniProt Q13546)
relative phosphorylation (A fixed, at +1): 0.709 | relative phosphorylation (A fixed, at +2): 0.619 | relative phosphorylation (A fixed, at +3): 0.572 | relative phosphorylation (A fixed, at +4): 0.819 | relative phosphorylation (A fixed, at -1): 0.574 | relative phosphorylation (A fixed, at -2): 1.01 | relative phosphorylation (A fixed, at -3): 0.92 | relative phosphorylation (A fixed, at -4): 1.03 | relative phosphorylation (A fixed, at -5): 0.84 | relative phosphorylation (D fixed, at +1): 0.248 | relative phosphorylation (D fixed, at +2): 0.612 | relative phosphorylation (D fixed, at +3): 0.489 | relative phosphorylation (D fixed, at +4): 0.846 | relative phosphorylation (D fixed, at -1): 0.592 | relative phosphorylation (D fixed, at -2): 0.374 | relative phosphorylation (D fixed, at -3): 0.536 | relative phosphorylation (D fixed, at -4): 0.614 | relative phosphorylation (D fixed, at -5): 0.642 | relative phosphorylation (E fixed, at +1): 0.331 | relative phosphorylation (E fixed, at +2): 0.927 | relative phosphorylation (E fixed, at +3): 0.398 | relative phosphorylation (E fixed, at +4): 0.81 | relative phosphorylation (E fixed, at -1): 0.313 | relative phosphorylation (E fixed, at -2): 0.37 | relative phosphorylation (E fixed, at -3): 0.551 | relative phosphorylation (E fixed, at -4): 0.685 | relative phosphorylation (E fixed, at -5): 0.68 | relative phosphorylation (F fixed, at +1): 1.91 | relative phosphorylation (F fixed, at +2): 1.28 | relative phosphorylation (F fixed, at +3): 2 | relative phosphorylation (F fixed, at +4): 0.939 | relative phosphorylation (F fixed, at -1): 0.793 | relative phosphorylation (F fixed, at -2): 0.734 | relative phosphorylation (F fixed, at -3): 0.896 | relative phosphorylation (F fixed, at -4): 1.04 | relative phosphorylation (F fixed, at -5): 1.09 | relative phosphorylation (G fixed, at +1): 0.79 | relative phosphorylation (G fixed, at +2): 0.817 | relative phosphorylation (G fixed, at +3): 0.707 | relative phosphorylation (G fixed, at +4): 1.28 | relative phosphorylation (G fixed, at -1): 0.747 | relative phosphorylation (G fixed, at -2): 1.21 | relative phosphorylation (G fixed, at -3): 1.29 | relative phosphorylation (G fixed, at -4): 1.27 | relative phosphorylation (G fixed, at -5): 1.18 | relative phosphorylation (H fixed, at +1): 0.809 | relative phosphorylation (H fixed, at +2): 1.29 | relative phosphorylation (H fixed, at +3): 1.04 | relative phosphorylation (H fixed, at +4): 1.07 | relative phosphorylation (H fixed, at -1): 1.52 | relative phosphorylation (H fixed, at -2): 1.18 | relative phosphorylation (H fixed, at -3): 0.977 | relative phosphorylation (H fixed, at -4): 0.908 | relative phosphorylation (H fixed, at -5): 1.12 | relative phosphorylation (I fixed, at +1): 1.1 | relative phosphorylation (I fixed, at +2): 1.28 | relative phosphorylation (I fixed, at +3): 1.19 | relative phosphorylation (I fixed, at +4): 1.27 | relative phosphorylation (I fixed, at -1): 1.12 | relative phosphorylation (I fixed, at -2): 1.07 | relative phosphorylation (I fixed, at -3): 0.944 | relative phosphorylation (I fixed, at -4): 1.04 | relative phosphorylation (I fixed, at -5): 1.28 | relative phosphorylation (K fixed, at +1): 1.33 | relative phosphorylation (K fixed, at +2): 0.639 | relative phosphorylation (K fixed, at +3): 0.517 | relative phosphorylation (K fixed, at +4): 0.762 | relative phosphorylation (K fixed, at -1): 1.83 | relative phosphorylation (K fixed, at -2): 1.3 | relative phosphorylation (K fixed, at -3): 1.27 | relative phosphorylation (K fixed, at -4): 1.06 | relative phosphorylation (K fixed, at -5): 1.1 | relative phosphorylation (L fixed, at +1): 0.829 | relative phosphorylation (L fixed, at +2): 1.21 | relative phosphorylation (L fixed, at +3): 1.09 | relative phosphorylation (L fixed, at +4): 0.947 | relative phosphorylation (L fixed, at -1): 1.01 | relative phosphorylation (L fixed, at -2): 1.19 | relative phosphorylation (L fixed, at -3): 0.986 | relative phosphorylation (L fixed, at -4): 0.935 | relative phosphorylation (L fixed, at -5): 1.14 | relative phosphorylation (M fixed, at +1): 1.38 | relative phosphorylation (M fixed, at +2): 1.34 | relative phosphorylation (M fixed, at +3): 1.34 | relative phosphorylation (M fixed, at +4): 1.11 | relative phosphorylation (M fixed, at -1): 1.18 | relative phosphorylation (M fixed, at -2): 1.04 | relative phosphorylation (M fixed, at -3): 1.08 | relative phosphorylation (M fixed, at -4): 1.13 | relative phosphorylation (M fixed, at -5): 1.2 | relative phosphorylation (N fixed, at +1): 0.583 | relative phosphorylation (N fixed, at +2): 0.801 | relative phosphorylation (N fixed, at +3): 0.726 | relative phosphorylation (N fixed, at +4): 0.839 | relative phosphorylation (N fixed, at -1): 1.3 | relative phosphorylation (N fixed, at -2): 0.975 | relative phosphorylation (N fixed, at -3): 0.829 | relative phosphorylation (N fixed, at -4): 0.76 | relative phosphorylation (N fixed, at -5): 0.797 | relative phosphorylation (P fixed, at +1): 0.198 | relative phosphorylation (P fixed, at +2): 0.568 | relative phosphorylation (P fixed, at +3): 0.355 | relative phosphorylation (P fixed, at +4): 1.14 | relative phosphorylation (P fixed, at -1): 0.453 | relative phosphorylation (P fixed, at -2): 1.11 | relative phosphorylation (P fixed, at -3): 0.927 | relative phosphorylation (P fixed, at -4): 1.02 | relative phosphorylation (P fixed, at -5): 0.833 | relative phosphorylation (Q fixed, at +1): 1.19 | relative phosphorylation (Q fixed, at +2): 0.891 | relative phosphorylation (Q fixed, at +3): 0.703 | relative phosphorylation (Q fixed, at +4): 0.787 | relative phosphorylation (Q fixed, at -1): 0.85 | relative phosphorylation (Q fixed, at -2): 0.796 | relative phosphorylation (Q fixed, at -3): 0.743 | relative phosphorylation (Q fixed, at -4): 0.689 | relative phosphorylation (Q fixed, at -5): 0.667 | relative phosphorylation (R fixed, at +1): 2.48 | relative phosphorylation (R fixed, at +2): 1.02 | relative phosphorylation (R fixed, at +3): 1.13 | relative phosphorylation (R fixed, at +4): 0.945 | relative phosphorylation (R fixed, at -1): 1.97 | relative phosphorylation (R fixed, at -2): 1.94 | relative phosphorylation (R fixed, at -3): 2.35 | relative phosphorylation (R fixed, at -4): 1.4 | relative phosphorylation (R fixed, at -5): 1.32 | relative phosphorylation (V fixed, at +1): 0.96 | relative phosphorylation (V fixed, at +2): 1.03 | relative phosphorylation (V fixed, at +3): 0.917 | relative phosphorylation (V fixed, at +4): 1.04 | relative phosphorylation (V fixed, at -1): 1.03 | relative phosphorylation (V fixed, at -2): 1.26 | relative phosphorylation (V fixed, at -3): 0.845 | relative phosphorylation (V fixed, at -4): 1.22 | relative phosphorylation (V fixed, at -5): 1.16 | relative phosphorylation (W fixed, at +1): 1.01 | relative phosphorylation (W fixed, at +2): 1.03 | relative phosphorylation (W fixed, at +3): 1.88 | relative phosphorylation (W fixed, at +4): 1.22 | relative phosphorylation (W fixed, at -1): 0.675 | relative phosphorylation (W fixed, at -2): 0.763 | relative phosphorylation (W fixed, at -3): 1.02 | relative phosphorylation (W fixed, at -4): 1.29 | relative phosphorylation (W fixed, at -5): 0.987 | relative phosphorylation (Y fixed, at +1): 1.15 | relative phosphorylation (Y fixed, at +2): 1.66 | relative phosphorylation (Y fixed, at +3): 1.94 | relative phosphorylation (Y fixed, at +4): 1.18 | relative phosphorylation (Y fixed, at -1): 1.04 | relative phosphorylation (Y fixed, at -2): 0.682 | relative phosphorylation (Y fixed, at -3): 0.84 | relative phosphorylation (Y fixed, at -4): 0.912 | relative phosphorylation (Y fixed, at -5): 0.972 | relative phosphorylation (pThr fixed, at +1): 0.704 | relative phosphorylation (pThr fixed, at +2): 0.999 | relative phosphorylation (pThr fixed, at +3): 0.696 | relative phosphorylation (pThr fixed, at +4): 1.06 | relative phosphorylation (pThr fixed, at -1): 0.761 | relative phosphorylation (pThr fixed, at -2): 1.34 | relative phosphorylation (pThr fixed, at -3): 1.15 | relative phosphorylation (pThr fixed, at -4): 1.08 | relative phosphorylation (pThr fixed, at -5): 0.87 | relative phosphorylation (pTyr fixed, at +1): 0.391 | relative phosphorylation (pTyr fixed, at +2): 0.788 | relative phosphorylation (pTyr fixed, at +3): 0.54 | relative phosphorylation (pTyr fixed, at +4): 0.968 | relative phosphorylation (pTyr fixed, at -1): 0.683 | relative phosphorylation (pTyr fixed, at -2): 0.719 | relative phosphorylation (pTyr fixed, at -3): 1.19 | relative phosphorylation (pTyr fixed, at -4): 0.795 | relative phosphorylation (pTyr fixed, at -5): 0.72
